Square brackets hold non-standard residues; d marks the D form. Ends that are not written are not given here. pY = N[C@@H](Cc1ccc(OP(=O)(O)O)cc1)C(=O)O
How the values were obtained:
Assay in all cases: fluorescence polarisation; Btk SH2 WT and mutants at several concentrations with 1 µM FITC-labeled peptide; Tris 40 mM pH 8, 150 mM NaCl, 1 mM DTT; 1:1 binding model
Settings in all cases: both partners purified
[1] = biological target: T1, Btk SH2 domain, wild-type (recombinant) (human, UniProt Q06187 271-383)
T1 construct: SH2 domain of human Bruton's tyrosine kinase (Btk); the construct is in PDB 6HTF; Construct limits are not in the text; also called Btk SH2 WT; human Btk SH2 domain; source: E. coli Bl21(DE3), purified (Ni-NTA, TEV cleavage, SEC); not shown: His6, N-terminal, cleaved; GST, N-terminal, cleaved
T1 sequence (Q06187 271-383): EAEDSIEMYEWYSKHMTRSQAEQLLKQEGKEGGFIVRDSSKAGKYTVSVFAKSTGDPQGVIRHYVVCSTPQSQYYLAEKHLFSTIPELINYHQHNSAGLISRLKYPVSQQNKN

[2] = biological target: T2, Btk SH2 domain K296E (XLA mutation) (human, UniProt Q06187 271-383, K296E)
T2 construct: SH2 domain of human Btk with the XLA patient mutation K296E; Same limits as m1; source: E. coli Bl21(DE3), purified (Ni-NTA, TEV cleavage, SEC); not shown: His6, N-terminal, cleaved; GST, N-terminal, cleaved
T2 sequence (Q06187 271-383 K296E): as the sequence (Q06187 271-383) above, with K26E counted along it

[3] = biological target: T3, Btk SH2 domain H364D (XLA mutation) (human, UniProt Q06187 271-383, H364D)
T3 construct: SH2 domain of human Btk with the XLA patient mutation H364D; Same limits as m1; source: E. coli Bl21(DE3), purified (Ni-NTA, TEV cleavage, SEC); not shown: His6, N-terminal, cleaved; GST, N-terminal, cleaved
T3 sequence (Q06187 271-383 H364D): as the sequence (Q06187 271-383) above, with H94D counted along it

[4] = biological target: T4, Btk SH2 domain S371P (XLA mutation) (human, UniProt Q06187 271-383, S371P)
T4 construct: SH2 domain of human Btk with the XLA patient mutation S371P; Same limits as m1; source: E. coli Bl21(DE3), purified (Ni-NTA, TEV cleavage, SEC); not shown: His6, N-terminal, cleaved; GST, N-terminal, cleaved
T4 sequence (Q06187 271-383 S371P): as the sequence (Q06187 271-383) above, with S101P counted along it

[5] = biological target: T5, Btk SH2 domain R372G (XLA mutation) (human, UniProt Q06187 271-383, R372G)
T5 construct: SH2 domain of human Btk with the XLA patient mutation R372G; Same limits as m1; source: E. coli Bl21(DE3), purified (Ni-NTA, TEV cleavage, SEC); not shown: His6, N-terminal, cleaved; GST, N-terminal, cleaved
T5 sequence (Q06187 271-383 R372G): as the sequence (Q06187 271-383) above, with R102G counted along it

[6] = biological target: T6, Btk SH2 domain K374N (XLA mutation) (human, UniProt Q06187 271-383, K374N)
T6 construct: SH2 domain of human Btk with the XLA patient mutation K374N; Same limits as m1; also called Btk SH2 K374N; source: E. coli Bl21(DE3), purified (Ni-NTA, TEV cleavage, SEC); not shown: His6, N-terminal, cleaved; GST, N-terminal, cleaved
T6 sequence (Q06187 271-383 K374N): as the sequence (Q06187 271-383) above, with K104N counted along it

Measured: binding result

B1: FITC-labeled pY-peptide (ADNDpYIIPLPD) (peptide)
peptide: ADND[pY]IIPLPD
modifications: also: FITC label, end not given here
notes: also called fluorescently labeled pY-peptide
binds: all assays above

Reference: publication PMC7210950, “Btk SH2-kinase interface is critical for allosteric kinase activation and its targeting inhibits B-cell neoplasms” (Nature Communications, 2020)
